{"source": "paper PMC6868365", "about": "(Nucleic Acids Research, 2019)", "key": {"[1]": {"molecular_target": "T1, DnaA Q208A (Escherichia coli, UniProt P03004 1-467, Q208A)", "T1 sequence (looked up)": "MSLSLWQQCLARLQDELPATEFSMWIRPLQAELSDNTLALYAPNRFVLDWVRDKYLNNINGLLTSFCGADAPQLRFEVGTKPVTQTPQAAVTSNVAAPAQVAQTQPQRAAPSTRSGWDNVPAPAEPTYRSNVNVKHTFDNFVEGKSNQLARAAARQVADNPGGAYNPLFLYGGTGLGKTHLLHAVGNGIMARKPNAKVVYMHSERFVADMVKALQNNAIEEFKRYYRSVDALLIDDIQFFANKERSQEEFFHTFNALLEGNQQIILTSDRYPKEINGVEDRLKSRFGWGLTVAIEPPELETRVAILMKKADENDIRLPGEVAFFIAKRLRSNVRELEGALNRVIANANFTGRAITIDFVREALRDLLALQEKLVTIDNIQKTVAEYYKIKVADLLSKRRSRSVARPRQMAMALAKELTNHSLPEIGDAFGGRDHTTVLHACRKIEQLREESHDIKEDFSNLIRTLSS", "assay": "native gel or EMSA"}, "[2]": {"molecular_target": "T2, DnaA L290A (Escherichia coli, UniProt P03004 1-467, L290A)", "T2 sequence (looked up)": "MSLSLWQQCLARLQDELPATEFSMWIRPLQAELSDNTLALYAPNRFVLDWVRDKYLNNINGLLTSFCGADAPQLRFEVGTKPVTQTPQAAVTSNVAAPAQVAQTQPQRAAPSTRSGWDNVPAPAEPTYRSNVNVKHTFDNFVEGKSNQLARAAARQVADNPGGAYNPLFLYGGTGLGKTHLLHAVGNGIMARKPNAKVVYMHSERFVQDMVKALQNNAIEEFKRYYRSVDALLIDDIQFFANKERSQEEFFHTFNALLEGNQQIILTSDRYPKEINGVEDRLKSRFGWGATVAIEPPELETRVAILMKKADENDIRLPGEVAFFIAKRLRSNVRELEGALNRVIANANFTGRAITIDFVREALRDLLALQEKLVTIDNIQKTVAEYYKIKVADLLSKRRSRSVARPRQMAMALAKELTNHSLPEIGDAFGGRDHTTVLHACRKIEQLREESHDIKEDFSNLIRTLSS", "assay": "native gel or EMSA"}}, "data": [{"binder": "DiaA (DnaA initiator-associating protein) (natural protein, Escherichia coli, UniProt P66817 1-196, looked up) MQERIKACFTESIQTQIAAAEALPDAISRAAMTLVQSLLNGNKILCCGNGTSAANAQHFAASMINRFETERPSLPAIALNTDNVVLTAIANDRLHDEVYAKQVRALGHAGDVLLAISTRGNSRDIVKAVEAAVTRDMTIVALTGYDGGELAGLLGPQDVEIRIPSHRSARIQEMHMLTVNCLCDLIDNTLFPHQDD", "values": [{"measurement": "binding result", "setting": "[1]", "result": "binds"}, {"measurement": "binding result", "setting": "[2]", "result": "binds"}]}]}
